Among the data in paper doi:10.1101/2025.06.09.658552 are Kd, koff and kon values, retold here.

“And” between values parts separate entries of the source, which are not always exact repeats. Equal entries are not always repeated. Where two headings read alike, the source gives them in different places.

The Kd is the free concentration of one partner at which half of the binding sites on the other are occupied at equilibrium, for simple one-to-one binding. What is called koff is the rate constant with which the complex falls apart. A higher koff goes with a short-lived complex. The kon is a measure of how fast the partners come together.

Assay [1] has as its target alpha/beta-tubulin (Saccharomyces cerevisiae) (UniProt P09733). As to conditions: cited from earlier work.
For assay [2] the target is unchanged. The conditions noted are these: cited from earlier work. The source holds these as a separate data set.
Assay [3] deals with biotinylated polymerization-blocked yeast αβ-tubulin, LR1 (β: T175R,V179R) (yeast) (UniProt P09733). Briefly: BLI; biotinylated polymerization-blocked tubulin immobilised on streptavidin (SA) biosensors, OctetR8; TOG2 2.3 to 200 nM in solution; 90 mM PIPES, 10 mM NaCl, 1 mM MgCl2, 1 mM EGTA, 1 mM GTP, 0.1% BSA, 0.005% triton X-100; association 300 s, dissociation 300 s; 1:1 model, global kinetic fit and steady-state amplitudes. A general note: Biolayer interferometry detects binding as a change in optical thickness at a sensor tip.

For the molecule Stu2 TOG2 (from UniProt P46675), in assay [1], the Kd was 160 nM.

Consider Stu2 TOG1 (from UniProt P46675), for which, in assay [2], the equilibrium dissociation constant (Kd) was 70 nM.

B1: Stu2-TOG2 (318–560) (domain or fragment)
chain: MLPEETILDKLPKDFQERITSSKWKDRVEALEEFWDSVLSQTKKLKSTSQNYSNLLGIYGHIIQKDANIQAVALAAQSVELICDKLKTPGFSKDYVSLVFTPLLDRTKEKKPSVIEAIRKALLTICKYYDPLASSGRNEDMLKDILEHMKHKTPQIRMECTQLFNASMKEEKDGYSTLQRYLKDEVVPIVIQIVNDTQPAIRTIGFESFAILIKIFGMNTFVKTLEHLDNLKRKKIEETVKTL
In the case of B1, in assay [3], the dissociation constant (Kd) was 8.9 nM and 9.6 nM; the off-rate constant (koff) worked out at 0.03 s⁻¹; the on-rate constant (kon) worked out at 3.2e+06 M⁻¹ s⁻¹.
